# Results: patent US20230391879A1 (INTERVET, published 2023)
# Numbering of substitutions follows the chain as printed.
# T1: Canine IL-31RA ECD-10His (canine)
# T1 construct: made in HEK-293 or CHO cells and coated on the ELISA plates; also called canine IL-31 receptor alpha extracellular domain HIS-tagged protein; cIL-31RA
# T1 chain: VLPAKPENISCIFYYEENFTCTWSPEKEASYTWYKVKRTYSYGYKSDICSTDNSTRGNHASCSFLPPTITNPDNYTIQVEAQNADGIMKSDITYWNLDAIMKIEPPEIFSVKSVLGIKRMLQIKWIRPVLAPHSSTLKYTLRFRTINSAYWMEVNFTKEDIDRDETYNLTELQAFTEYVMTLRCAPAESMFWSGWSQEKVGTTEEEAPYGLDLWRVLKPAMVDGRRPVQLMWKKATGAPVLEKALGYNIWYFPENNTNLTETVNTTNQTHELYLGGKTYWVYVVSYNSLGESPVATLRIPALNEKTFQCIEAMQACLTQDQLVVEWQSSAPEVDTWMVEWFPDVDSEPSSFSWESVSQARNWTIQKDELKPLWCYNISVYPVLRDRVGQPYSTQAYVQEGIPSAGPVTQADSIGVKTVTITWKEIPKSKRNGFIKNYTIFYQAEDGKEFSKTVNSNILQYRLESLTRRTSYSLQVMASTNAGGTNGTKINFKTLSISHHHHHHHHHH
# B1: caninized 44E2VH2VK2 (antibody, V domains shown)
# VH: EVQLVESGGDLVKPEGSLRLSCVVSGFSLTSNGVSWVRQAPGKGLQWIAAISSGGSTYYNSVLKSRLTISRDNAKNTLYLQMNSLRTEDTAVYYCARRLSGYNYVPFAYWGQGTLVTVSS
# VL: EIVMTQSPASLSLSQEEKVTITCKASQNIYKHLAWYQQKPGQAPKLLIYNANSLQTGIPSRFSGSGSGTDFSFTISSLEPEDVAVYFCQQYYSGDTFGAGTKVELKR
# notes: Caninized antibody, canine IgG-Bm heavy chain and canine kappa light chain; also called c44E2; c44E2VH2-cIgGBm + c44E2VK2-cCK
# B2: caninized 44E2VH5VK1 (antibody, V domains shown)
# VH: ELTLQESGPGLVKPSQTLSLTCTVSGFSLTSNGVSWIRQRPGRGLEWMGAISSGGSTYYNSVLKSRISITADTAKNQFSLQLSSMTTEDTAVYYCARRLSGYNYVPFAYWGQGTLVTVSS
# VL: B1 VL with I58V, F87Y
# notes: Caninized antibody, canine IgG-Bm heavy chain and canine kappa light chain; also called c44E2VH5-cIgGBm + c44E2VK1-cCK
# B3: caninized 44E2VH4VK1 (antibody, V domains shown)
# VH: B2 VH with T23V, F27G, L29V
# VL: B1 VL with I58V, F87Y
# notes: Caninized antibody, canine IgG-Bm heavy chain and canine kappa light chain; also called c44E2VH4-cIgGBm + c44E2VK1-cCK
# B4: caninized 44E2VH5VK2 (antibody, V domains shown)
# VH: B2 VH
# VL: B1 VL
# notes: Caninized antibody, canine IgG-Bm heavy chain and canine kappa light chain; also called c44E2; c44E2VH5-cIgGBm + c44E2VK2-cCK
# B5: caninized 10A12VH1VL5 (antibody, V domains shown)
# VH: EVQLVESGGDLVKPGGSLRLSCVASGFTFSNYYMAWVRQAPGKGLQWVASISTGGGNTYYRDSVKGRFTISRDNAKNTLYLQMNSLRAEDTAMYYCAKHGTLYFDYWGQGTLVTVSS
# VL: QPVLTQPPSLSASLGTTARLTCERSSGDIGDSYVSWYQQKPGSPPRDLLYVDDQRPSGVSKSFSGSKDTSANAGLLLISGLQPEDEADYYCQSYDSNIDGPVFGGGTHLTVLG
# notes: Caninized antibody, canine IgG-Bm heavy chain and canine lambda light chain; also called c10A12VH1-cIgGBm + c10A12VL5-cCL
# B6: caninized 10A12VH1VL6 (antibody, V domains shown)
# VH: B5 VH
# VL: B5 VL with L48V, L49I, G58E, Y90F
# notes: Caninized antibody, canine IgG-Bm heavy chain and canine lambda light chain; also called c10A12VH1-cIgGBm + c10A12VL6-cCL
# B7: caninized 10A12VH2VL6 (antibody, V domains shown)
# VH: B5 VH with V23A, K98R
# VL: B5 VL with L48V, L49I, G58E, Y90F
# notes: Caninized antibody, canine IgG-Bm heavy chain and canine lambda light chain; also called c10A12; c10A12VH2-cIgGBm + c10A12VL6-cCL
# B8: caninized 10A12VH2VL5 (antibody, V domains shown)
# VH: B5 VH with V23A, K98R
# VL: B5 VL
# notes: Caninized antibody, canine IgG-Bm heavy chain and canine lambda light chain; also called c10A12VH2-cIgGBm + c10A12VL5-cCL
# Molecular target: T1, Canine IL-31RA ECD-10His
# Test: ELISA (FIG. 6C)
row,binding result,Binder
1,binds,B1
2,binds,B2
3,binds,B3
4,binds,B4

# Molecular target: T1, Canine IL-31RA ECD-10His
# Test: ELISA (FIG. 6A)
row,binding result,Binder
1,binds,B5
2,binds,B6
3,binds,B7
4,binds,B8
